{
  "source": "paper PMC4954732",
  "about": "“Sterol Biosynthesis and Azole Tolerance Is Governed by the Opposing Actions of SrbA and the CCAAT Binding Complex”",
  "biological_target": "T1, SrbA bHLHZ (Aspergillus fumigatus, UniProt Q4WIN1 161-267)",
  "T1 sequence": "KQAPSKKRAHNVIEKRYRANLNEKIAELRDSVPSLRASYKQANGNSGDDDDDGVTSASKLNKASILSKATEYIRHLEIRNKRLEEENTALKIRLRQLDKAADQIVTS",
  "assay": "SPR; apparent Kd; Rmax 197.6, two homodimers proposed; SPR on immobilised biotinylated duplexes, 1:1 model with mass transport; buffer, salt, pH and temperature not stated (protocols of refs 19, 54)",
  "conditions": "protein: recombinant; chain copies: 2; label: 5' biotin on strand 1; blunt",
  "data": [
    {"binder": "SRE1+SRE2 (cyp51Ap-320-32) (dsDNA) DNA 1: AGAATCACGCGGTCCGGATGTGTGCTGAGCCG DNA 2: CGGCTCAGCACACATCCGGACCGCGTGATTCT", "values": [
      {"measurement": "Kd", "value": 22, "unit": "nM"}
    ]}
  ]
}
